How the values were obtained:
[1] = target: T1, LSD1 (Homo sapiens, UniProt O60341); assay: LSD1 demethylation assay on nucleosomal substrates (mononucleosomes), Western blotting; format: biochemical; design: Full length (1-851aa) and C-terminal deleted (1-427 aa) human LSD1 cDNAs; 6xHis (N); made in house; host or cells: bacteria
Description: Preparation of mononucleosome. Mononucleosome was made according to a standard protocol (Tagami et al., 2004; Utley et al., 1996). Briefly, nuclear pellet from both TSA-treated or non-treated HeLa cells was homogenized for 60 times with type A pestle to obtain oligo-nucleosomes. The oligo-nucleosomes were then digested with micrococcal nuclease (40 units/mL) for 10 mins at 30° C. The nuclease is inactivated by 5 mM EDTA. Digested materials were spun at 14000 rpm for 3 mins. Resulting supernatant was spun again for additional 3 mins at the same speed. Supernatant from the second spin was subject to 10-25% glycerol gradient sedimentation. The monocleosome-containing fractions were identified by examining aliquots of fractions (treated with proteinase K) on DNA agarose gel. An aliquot of TSA-treated or non TSA-treated mononucleosome, a kind gift from Dr. Yoshihiro Nakatani's Lab in Dana Faber Cancer Institute, Harvard Medical School (Tagami et al., 2004), was used here as a control for the quality of mononucleosome made in our lab.
(§1) Demethylation assay. LSD1 demethylation activity on free histone or nucleosomal histone was carried out as previously reported (Shi et al., 2004). Briefly, bulk histones or mononucleosomes were incubated with purified His-LSD1 with or without purified His-CoREST, His-CoREST mutants, His-BHC80 and/or GST-HDAC1 in the histone demethylase activity (HDM) assay buffer (50 mM Tris pH8.5, 50 mM KCl, 5 mM MgCl, 0.5% BSA and 5% glycerol) from 10 mins up to 1 hour at 37° C. The demethylase activity of LSD1 under various conditions was evaluated by Western blotting using K4-H3 methylation-specific antibodies.

[2] = target: T1, LSD1; assay: LSD1 demethylation assay on free (bulk) histones, Western blotting; format: biochemical; design: Full length (1-851aa) and C-terminal deleted (1-427 aa) human LSD1 cDNAs; 6xHis (N); made in house; host or cells: bacteria (IPTG induction); details: H3-K4 demethylation, recombinant LSD1
Description: as §1

Q: Which results are given for “BHC80: PHD domain-containing component of the BRAF35/HDAC2 complex, recombinant”?
A: effect of added protein on ability of recombinant LSD1 to demethylate nucleosomal substrates ([1]; bacterially purified protein added to recombinant LSD1): no effect; demethylase activity of LSD1/CoREST ([1]; increasing amounts of BHC80, nucleosomal substrates): proportional decrease; effect on LSD1 demethylase activity on free histones [2]: significantly dampened
